Laboratory results: publication PMC12204516, “Structural basis for higher-order DNA binding by a bacterial transcriptional regulator” (PLOS Genetics, 2025)
Values joined by “and” are separate entries in the source; they are usually repeats but may differ in a detail not shown here. Equal values may be shown once.

T1: Xre^Pp antitoxin with a N-terminal His6-tag (Xre_(NHis6)), of the Xre_(NHis6)-RES^Pp complex (Pseudomonas putida KT2440, UniProt Q88K58 11-159)
T1 construct: also called Xre_(His6); source: E. coli BL21(DE3), pETDuet::xre_(NHis6)-res^Pp, purified with RES (HisTrap FF, Source 15Q, Superdex 200 Increase); not shown: His6, N-terminal, kept
T1 sequence: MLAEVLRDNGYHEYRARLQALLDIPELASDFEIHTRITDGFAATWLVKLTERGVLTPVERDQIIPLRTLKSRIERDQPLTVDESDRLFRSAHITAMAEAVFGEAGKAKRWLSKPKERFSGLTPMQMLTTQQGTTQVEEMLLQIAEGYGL

B1: RES^Pp toxin, untagged, co-expressed and co-purified with Xre_(NHis6) (Xre_(NHis6)-RES^Pp complex) (natural protein, Pseudomonas putida KT2440)
chain: MILWRISAYADLSGTGGLRVSGRWHQAGRPVVYAATSPPGAMLEVLVHLEIDPEDFPTTMRLLRIELPDTVSQAQLPALQPGWSAQPELTRTLGNRFLDDCSALLLPVPSAIMPSTTNYLFNPRHPQAQSAKIQVEDFTPDSRLF
notes: also called RES toxin
B2: RES^Pp toxin with N-terminal His6-tag (RES^Pp_(NHis6)), of the Xre-RES^Pp_(NHis6) complex (natural protein, Pseudomonas putida KT2440, UniProt Q88K57 1-145, looked up)
chain: B1 chain
notes: RES-domain NADase toxin encoded by res^Pp of the xre-res locus, Pseudomonas putida KT2440; residues 1-145 built in PDB 9R35; the 13 N-terminal residues from the tag are not seen in the model; also called RES_(His6); RES^Pp_(His6); not shown: His6, N-terminal, kept
B3: Xre^Pp antitoxin, untagged, co-expressed and co-purified with RES^Pp_(NHis6) (Xre-RES^Pp_(NHis6) complex) (natural protein, Pseudomonas putida KT2440, UniProt Q88K58 11-159, looked up)
chain: T1 sequence
notes: Xre antitoxin (N-terminal HTH domain, C-terminal DUF2384) encoded by xre^Pp of the xre-res locus, Pseudomonas putida KT2440; residues 1-149 built in PDB 9R35 (complete in chain B and others); also called Xre antitoxin

What was measured:
[1] = molecular target: T1, Xre^Pp antitoxin with a N-terminal …; experiment: SEC; details: both partners purified
mass photometry = molecular target: the molecule itself; experiment: mass photometry
[2] = molecular target: the molecule itself; experiment: SEC-MALS; Superose 6 Increase 10/300, 20-40 ug per sample, 20 mM HEPES pH 7.5, 150 mM KCl, 5 mM MgCl2, 3 mM BME
[3] = molecular target: B2; experiment: mass photometry; details: both partners purified
[4] = molecular target: B2; experiment: SEC-MALS; Superose 6 Increase 10/300, 20-40 ug per sample, 20 mM HEPES pH 7.5, 150 mM KCl, 5 mM MgCl2, 3 mM BME; details: both partners purified

Binder: B1
- stoichiometry N [1]: 1 RES per Xre
- binding result (mass photometry): binds

Binder: B2
- binding result [2]: binds

Binder: B3
- stoichiometry N [3]: ~2 Xre per RES and ~1.5 Xre per RES and ~1 Xre per RES
- stoichiometry N [4]: 2 Xre per RES
